The record followed here is patent US20210388097A1 (SORRENTO THERAPEUTICS, published 2021).

The target of the assay is T1, human APRIL protein (R&D Systems, catalog #5860-AP-010/CF) (human, UniProt O75888 105-250, limits assumed).
T1 construct: Bought protein; also called human APRIL protein from R&D Systems; TNF13
T1 sequence (looked up): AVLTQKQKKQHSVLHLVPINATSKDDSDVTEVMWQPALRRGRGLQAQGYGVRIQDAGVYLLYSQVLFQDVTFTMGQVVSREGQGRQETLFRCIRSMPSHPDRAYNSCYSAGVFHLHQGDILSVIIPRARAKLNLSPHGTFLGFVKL
Put plainly: bio-layer interferometry, APRIL on AR2G sensor, BCMA-mouse Fc in solution. The protocol: Bio-layer interferometry was also used to measure binding between APRIL protein, and wild type or mutant BCMA proteins. Human APRIL protein (R&D Systems, catalog #5860-AP-010/CF) was loaded onto an Ar2G sensor (OctetRET96e) and reacted with 2.5 μg/mL of one of three types of human BCMA proteins including: wild type human BCMA-mouse Fc (SEQ ID NO:5), mutant-1 human BCMA-mouse Fc (17G-18G; SEQ ID NO:6), or mutant-2 human BCMA-mouse Fc (de132-35G; SEQ ID NO:7).
In general terms: BLI is a label-free optical method that tracks binding on a fibre tip over time.

B1: Mutant-1 human BCMA protein-mouse Fc (Fc fusion)
chain: MLQMAGQCSQNEYFDSGGHACIPCQLRCSSNTPPLTCQRYCNASVTNSVKGTNAGLGGLVDYKDDDDKTHTCPPCKCPAPNLLGGPSVFIFPPKIKDVLMISLSPIVTCVVVDVSEDDPDVQISWFVNNVEVHTAQTQTHREDYNSTLRVVSALPIQHQDWMSGKEFKCKVNNKDLPAPIERTISKPKGSVRAPQVYVLPPPEEEMTKKQVTLTCMVTDFMPEDIYVEWTNNGKTELNYKNTEPVLDSDGSYFMYSKLRVEKKNWVERNSYSCSVVHEGLHNHHTTKSFSRTPGK
notes: also called mutant-1 human BCMA-mouse Fc (17G-18G); mutant-1 BCMA protein
With B1, the binding result is listed as “no binding (tested: 2.5 µg/mL)”.
